Reference: paper PMC8452523 (Cell Reports, 2021)

B1: REGN10987 (antibody, V domains shown)
VH: QVQLVESGGGVVQPGRSLRLSCAASGFTFSNYAMYWVRQAPGKGLEWVAVISYDGSNKYYADSVKGRFTISRDNSKNTLYLQMNSLRTEDTAVYYCASGSDYGDYLLVYWGQGTLVTVSS
VL: QSALTQPASVSGSPGQSITISCTGTSSDVGGYNYVSWYQQHPGKAPKLMIYDVSKRPSGVSNRFSGSKSGNTASLTISGLQSEDEADYYCNSLTSISTWVFGGGTKLTVL
B2: P5C3 human monoclonal antibody (antibody, V domains shown)
VH: QMQLVQSGPEVKKPGTSVKVSCKASGFTFTSSAVQWVRQARGQRLEWIGWIVVGSGNTDYAQQFQERVTITRDMSTSTAYMELSSLGSEDTAVYYCAAPNCSGGSCYDGFDLWGQGTMVTVSS
VL: EIVLTQSPGTLSLSPGERATLSCRGSQSVRSSYLGWYQQKPGQAPRLLIYGASSRATGIPDRFSGSGSGTDFTLTISRLEPEDFAVYYCQQYGSSPWTFGQGTKVEIK
B3: REGN10933 (antibody, V domains shown)
VH: QVQLVESGGGLVKPGGSLRLSCAASGFTFSDYYMSWIRQAPGKGLEWVSYITYSGSTIYYADSVKGRFTISRDNAKSSLYLQMNSLRAEDTAVYYCARDRGTTMVPFDYWGQGTLVTVSS
VL: DIQMTQSPSSLSASVGDRVTITCQASQDITNYLNWYQQKPGKAPKLLIYAASNLETGVPSRFSGSGSGTDFTFTISGLQPEDIATYYCQQYDNLPLTFGGGTKVEIK

target: Spike RBD protein (SARS-CoV-2, UniProt P0DTC2); assay: Luminex bead-based competitive binding assay

Row | Binder | binding result
1 | B1 | binds
2 | B2 | binds
3 | B3 | binds
